{
  "source": "patent US20180021429A1",
  "about": "“ANTICANCER AGENTS OR ANTIMETASTATIC AGENTS USING FSTL1 AND COMBINATION DRUG THEREOF” (PHARMA FOODS INTERNATIONAL CO., LTD., priority 2015, published 2018)",
  "molecules": {"B1": {"name": "#6-55: chicken-mouse chimeric anti-FSTL1 antibody clone; variable regions SEQ ID NO: 783 (light), 785 (heavy) (antibody, V domains shown)", "VH": "AVTLDESGGGLQTPGGALSLVCKGSGFTFTSVTMQWVRQAPGKGLEWVASVCSGSSTYYAPAVKGRATISRDNGQSTVRLQLSNLRPEDTGTYYCAKIAGRARWSCTSAAYNIDAWGHGTEVIVSS", "VL": "ASTQPSSVSAIPGETVKITCSGGGNNYGWYQQRSPGSAPVTVIYYNDNRPSNIPSRFSGSTSGSTSTLTITGVQADDEAIYYCGSWDSNTDSGIFGAGTTLTVL", "modifications": "mouse constant regions"}},
  "key": {"mouse bone marrow cells": {"system": "mouse bone marrow cells", "experiment": "Inhibition of induction of MSCs, cancer-associated MSCs and M-MDSCs by FSTL1 in mouse bone marrow cells (Examples 13-15)", "assay_type": "cell-based", "conditions": "Example 15: 20 ng/mL FSTL1; antibody 20.0, 10.0, 5.0 or 2.5 μg/ml; 8 days; FIG. 104A", "protocol": "Mouse bone marrow cells prepared in the same way as in Example 4 were supplemented with 20 ng/mL ([…], #7-34, #8-1, or #8-4), an anti-PD-L1 antibody reported to have an immunosuppression-mitigating effect, or a control antibody anti-DNP antibody and cultured under stimulation. 8 days thereafter, the number of cells was counted while the cells were stained with a PE-Cy5-labeled anti-CD45 antibody, a PE-labeled anti-ALCAM antibody, a FITC-labeled anti-CD271 antibody (Abcam plc, Cat. No. AB62122), a FITC-labeled anti-CD11b antibody (BD Pharmingen/Becton, Dickinson and Company, Cat. No. 553310), and a PE-Cy5-labeled anti-Gr1 antibody (eBioscience, Cat. No. 15-5931) in order to detect MSCs (CD45− negative cells), cancer-associated MSCs (CD45-negative, ALCAM-positive, and CD271-positive cells) which are MSCs increasing in number in association with cancer metastasis, and monocytic myeloid-derived suppressor cells (M-MDSCs: CD11b-positive, Gr1-positive, and ALCAM-positive cells) increasing in number together with cancer-associated MSCs, and the contents of the cells mentioned above were analyzed by flow cytometry using FACScan to calculate the percentage and number of MSCs per culture (FIG. 102). […]\nThe antibody clone (#6-55, #7, #10, #13, or #22) was evaluated for its activity by the same testing method as in Example 13. #6-55 was set as a positive control for activity. […]"}, "[1]": {"system": "mouse colorectal cancer CT26 cell-transplanted models", "experiment": "In vivo colorectal cancer model (Example 20)", "set-up": "species or system BALB/c mice", "conditions": "intraperitoneal 10 mg/kg on days 4 and 7", "protocol": "Procedures and methods of the experiment were basically performed under substantially the same conditions as in the bone metastasis model experiments of Examples 17 to 19 except that bone metastasis was not evaluated. Specifically, drug efficacy evaluation was conducted using mouse tumor models other than Snail-positive tumor bone metastasis models. The drug efficacy of the anti-FSTL1 antibody was evaluated using cancer-bearing models of BALB/c mice different in strain from the C57BL/6 mice used in the preceding tests. The test was conducted by changing only the amount of tumor implanted, antibody administration timing, and assay timing. • Day 0: transplantation of tumor cells (5×10^5 cells subcutaneously & 5×10^5 cells intravenously) Days 4 and 7: intraperitoneal administration of the antibody (10 mg/kg) • Day 14: drug efficacy evaluation (subcutaneous tumor growth (FIG. 14A) and lung metastasis (FIG. 14B))\nFor lung metastasis, the number of metastatic nodules in the lung was macroscopically counted. The tumor volumes of the mice were measured 7, 11, and 14 days after tumor implantation."}, "[2]": {"system": "Panc1, Panc1-snail+, MIAPaCa, MDA231, Hs294T", "experiment": "Proliferative capacity and invasive capacity of various human tumor cells", "assay_type": "cell-based", "conditions": "particularly in highly metastatic tumor cell line highly expressing Snail", "description": "(§1) Specifically, the influence of the anti-FSTL1 antibody on proliferative capacity and invasive capacity was studied using various human tumor cells, regardless of the presence or absence of the expression of Snail or FSTL1. […] After culture for 3 days, the number of cells per culture system was counted to evaluate the proliferative capacity of the cells. […] Then, the number of cells that permeated the membranes was counted under a microscope to evaluate the invasive capacity of the cells.\nas §1"}},
  "data": [
    {"molecule": "B1", "values": [
      {"measurement": "inhibitory activity against the induction of MSCs, cancer-associated MSCs, and M-MDSCs by FSTL1", "setting": "mouse bone marrow cells", "value": "at the same level"},
      {"measurement": "growth and lung metastasis of CT26 subcutaneous tumor", "setting": "[1]; day 14", "value": "very strongly suppressed the growth and lung metastasis of CT26 subcutaneous tumor"},
      {"measurement": "solid tumor disappearance (mice)", "setting": "[1]; n=5", "value": "three out of the five mice"},
      {"measurement": "invasive capacity", "setting": "[2]; Matrigel-coated transwell chamber, 4 hours", "value": "strongly suppressed"},
      {"measurement": "proliferative capacity", "setting": "[2]; antibody 5 μg/ml, 3 days", "value": "strongly suppressed"}
    ]}
  ]
}
